Experimental data: patent US20150174237A1 (HENRY M JACKSON FOUNDATION FOR THE ADVANCEMENT OF MILITARY …, published 2015)

Target: T1, mouse B cell CD21 (on mouse B cells) (mouse, UniProt P19070 12-1025)
T1 construct: whole, on cells
T1 sequence: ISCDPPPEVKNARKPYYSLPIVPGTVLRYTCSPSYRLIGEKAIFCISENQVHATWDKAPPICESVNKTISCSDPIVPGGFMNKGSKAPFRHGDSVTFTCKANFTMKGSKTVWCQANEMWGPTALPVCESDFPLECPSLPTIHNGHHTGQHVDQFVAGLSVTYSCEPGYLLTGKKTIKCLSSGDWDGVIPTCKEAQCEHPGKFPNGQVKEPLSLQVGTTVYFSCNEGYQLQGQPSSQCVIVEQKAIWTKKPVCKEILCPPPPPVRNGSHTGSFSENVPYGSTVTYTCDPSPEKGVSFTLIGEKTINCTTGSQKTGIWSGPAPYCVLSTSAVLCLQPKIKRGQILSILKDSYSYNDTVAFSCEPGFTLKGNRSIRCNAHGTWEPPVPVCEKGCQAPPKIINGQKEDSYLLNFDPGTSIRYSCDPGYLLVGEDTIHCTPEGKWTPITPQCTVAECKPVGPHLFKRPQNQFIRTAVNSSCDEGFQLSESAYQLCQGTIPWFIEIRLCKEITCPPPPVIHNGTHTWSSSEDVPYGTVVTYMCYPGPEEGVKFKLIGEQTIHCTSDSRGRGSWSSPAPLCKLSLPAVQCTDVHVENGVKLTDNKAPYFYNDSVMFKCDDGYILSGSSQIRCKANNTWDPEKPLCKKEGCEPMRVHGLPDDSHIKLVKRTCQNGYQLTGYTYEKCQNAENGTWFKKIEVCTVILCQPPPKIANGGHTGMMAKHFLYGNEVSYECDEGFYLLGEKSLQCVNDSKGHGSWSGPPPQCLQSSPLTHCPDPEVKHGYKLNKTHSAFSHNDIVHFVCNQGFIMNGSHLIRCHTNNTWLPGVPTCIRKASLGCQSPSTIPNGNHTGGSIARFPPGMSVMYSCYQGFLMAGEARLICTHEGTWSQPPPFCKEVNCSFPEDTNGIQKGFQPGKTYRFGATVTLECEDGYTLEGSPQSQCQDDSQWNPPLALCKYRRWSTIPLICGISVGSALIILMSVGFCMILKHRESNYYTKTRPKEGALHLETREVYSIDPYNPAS
Assay: not described (own observation on mouse B cells)

B1: monomeric gp350 (truncated EBV gp350, amino acids 1-470, with His6 tag) (ligand)
chain: MEAALLVCQYTIQSLIHLTGEDPGFFNVEIPEFPFYPTCNVCTADVNVTINFDVGGKKHQLDLDFGQLTPHTKAVYQPRGAFGGSENATNLFLLELLGAGELALTMRSKKLPINVTTGEEQQVSLESVDVYFQDVFGTMWCHHAEMQNPVYLIPETVPYIKWDNCNSTNITAVVRAQGLDVTLPLSLPTSAQDSNFSVKTEMLGNEIDIECIMEDGEISQVLPGDNKFNITCSGYESHVPSGGILTSTSPVATPIPGTGYAYSLRLTPRPVSRFLGNNSILYVFYSGNGPKASGGDYCIQSNIVFSDEIPASQDMPTNTTDITYVGDNATYSVPMVTSEDANSPNVTVTAFWAWPNNTETDFKCKWTLTSGTPSGCENISGAFASNRTFDITVSGLGTAPKTLIITRTATNATTTTHKVIFSKAPESTTTSPTLNTTGFADPNTTTGLPSSTHVPTNLTAPASTGPTVSTHHHHHH
- binding result: no binding
